The chains are these.
B1: 69331 (antibody, V domains shown)
VH: QVQLVESGGGVVQPGRSLRLSCIASGFTFSVYGIHWVRQAPGKGLEWMAVISHDGNIKHYADSVKGRFTISRDNSKNTLYLQINSLRTEDTAVYYCAKDTWNSLDTFDIWGQGTMVTVSS
VL: DIQLTQSPSSLSASVGDRVTITCWASQGISSYLAWYQQKPGKAPKLLIYAASTLQSGVPSRFSGSGSGTEFTLTISSLQPEDFATYYCQQLNSYPLTFGGGTKVEIK
notes: Anti-hTfR antibody of the initial screen; only variable domains are tied to it
B2: 69340 (antibody, V domains shown)
VH: EVQLVESGGGLVQPGRSLRLSCAASGFTFDDKAMHWVRQVPGKGLEWISGISWNSGTIGYADSVKGRFIISRDNAKNSLYLQMNSLRAEDTALYYCAKDGDTSGWYWYGLDVWGQGTTVTVSS
VL: EIVLTQSPATLSLSPGERATLSCRASQSVSSYLAWYQQKPGQAPRLLIHDVSNRATGIPARFSGSGSGTDFTLTISSLEPEDFVVYYCQQRSDWPITFGQGTRLEIK
notes: as for B1
B3: 69326 (antibody, V domains shown)
VH: EVQLVESGGGLVQPGGSLRLSCAVSGFIFSSYEMNWVRQAPGKGLEWVSYISSSGSTIFYADSVKGRFTISRDNAKNSLYLQMNSLRAEDTAVYYCVSGVVLFDVWGQGTMVTVSS
VL: EIVMTQSPATLSVSPGERATLSCRASQSVSSNFAWYQQKPGQAPRLLIYSASSRATGIPVRFSGSGSGTEFTLTISSLQSEDFAVYYCQQYNIWPRTFGQGTKVEIK
notes: as for B1
B4: 69263 (antibody, V domains shown)
VH: EVQLVESGGGLVQPGRSLRLSCAVSGFTFDDYAMHWVRQAPGKGLEWVSGISWNSGTRGYADSVKGRFTISRDNAKNSLYLQMNSLRGEDTALYYCVKDITISPNYYGMDVWGQGTTVTVSS
VL: DIQMTQSPSSLSASVGDRVTITCRASQDISHYSAWYQQKPGKLPNLLIYAASTLQSGVPSRFSGSGSGTDFSLTTSSLQPEDVATYYCQKYNSVPLTFGGGTKVEIK
notes: as for B1
B5: 69348 (antibody, V domains shown)
VH: QVQLVESGGGVVQPGRSLRLSCAASGFTFTTYGMHWVRQAPGKGLEWVAVIWYDGSNKYYGDSVKGRFTISRDNSKNTLYLQMNSLRVDDTAVYYCTRTHGYTRSSDGFDYWGQGTLVTVSS
VL: DIQMTQSPSSLSASVGDRVTITCRASQSIRNVLGWFQQKPGKAPQRLIYAASSLQSGVPSRFSGSGSGTEFTLTISSLQPEDFATYYCLQHNFYPLTFGGGTKVEIK
notes: as for B1
B6: 69332 (antibody, V domains shown)
VH: QVTLRESGPALVKPSQTLTLTCTFSGFSLNTYGMFVSWIRQPPGKALEWLAHIHWDDDKYYSTSLKTRLTISKDTSKNQVVLTMTNMDPVDTATYYCARGHNNLNYIIHWGQGTLVTVSS
VL: AIQMTQSPSSLSASVGDRVTITCRASQGIRNDLGWYQQKPGKAPKLLIYAASTLQSGVPSRFSGSGSGTDFTLTISSLQPEDFATYYCLQDYNYPFTFGPGTKVDIK
notes: as for B1

This note sets out measurements from patent US20230338477A1 (published 2023).

This assay deals with T1, human transferrin receptor 1 (hTfR) (human, UniProt P02786 89-760, limits assumed).
T1 construct: also called TFRC; transferrin receptor protein 1
T1 sequence (P02786 89-760 limits assumed): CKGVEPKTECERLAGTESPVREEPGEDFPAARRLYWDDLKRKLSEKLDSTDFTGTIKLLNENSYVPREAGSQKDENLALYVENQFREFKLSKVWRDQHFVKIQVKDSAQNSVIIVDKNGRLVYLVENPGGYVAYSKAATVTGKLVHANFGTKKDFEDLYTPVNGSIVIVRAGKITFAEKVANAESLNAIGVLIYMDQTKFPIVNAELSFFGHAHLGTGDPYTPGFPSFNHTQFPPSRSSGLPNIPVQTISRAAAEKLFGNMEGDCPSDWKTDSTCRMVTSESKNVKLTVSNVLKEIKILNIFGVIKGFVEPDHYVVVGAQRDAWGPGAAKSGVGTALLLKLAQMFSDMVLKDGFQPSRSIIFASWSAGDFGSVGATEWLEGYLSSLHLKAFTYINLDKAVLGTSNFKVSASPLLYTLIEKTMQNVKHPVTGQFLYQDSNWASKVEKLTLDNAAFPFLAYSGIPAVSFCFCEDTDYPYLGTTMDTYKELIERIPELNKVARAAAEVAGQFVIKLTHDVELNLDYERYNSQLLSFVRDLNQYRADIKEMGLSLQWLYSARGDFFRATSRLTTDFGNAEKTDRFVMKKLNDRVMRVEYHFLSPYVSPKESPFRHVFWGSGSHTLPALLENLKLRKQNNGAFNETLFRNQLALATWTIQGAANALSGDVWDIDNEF
The assay can be described thus: in vitro binding screen, method not described.
Turning to B1, the binding result is on record as “binds”.

Consider B2, for which the binding result was “binds”.

For the molecule B3, the binding result is “binds”.

Turning to B4, the binding result is “binds”.

B5: the binding result is given as “binds”.

For B6, the binding result is reported as “binds”.
